From patent US20030186334A1, “KTS-disintegrins” (Temple University - Of the Commonwealth System of Higher …, priority 2001, published 2003)

Target: human α1β1 integrin (human), P56199
Experiment: inhibition of adhesion of α1K562 cells to immobilised collagen IV

Sequence of human α1β1 integrin (human), P56199 (P56199 29-1179, chain 1 of 2): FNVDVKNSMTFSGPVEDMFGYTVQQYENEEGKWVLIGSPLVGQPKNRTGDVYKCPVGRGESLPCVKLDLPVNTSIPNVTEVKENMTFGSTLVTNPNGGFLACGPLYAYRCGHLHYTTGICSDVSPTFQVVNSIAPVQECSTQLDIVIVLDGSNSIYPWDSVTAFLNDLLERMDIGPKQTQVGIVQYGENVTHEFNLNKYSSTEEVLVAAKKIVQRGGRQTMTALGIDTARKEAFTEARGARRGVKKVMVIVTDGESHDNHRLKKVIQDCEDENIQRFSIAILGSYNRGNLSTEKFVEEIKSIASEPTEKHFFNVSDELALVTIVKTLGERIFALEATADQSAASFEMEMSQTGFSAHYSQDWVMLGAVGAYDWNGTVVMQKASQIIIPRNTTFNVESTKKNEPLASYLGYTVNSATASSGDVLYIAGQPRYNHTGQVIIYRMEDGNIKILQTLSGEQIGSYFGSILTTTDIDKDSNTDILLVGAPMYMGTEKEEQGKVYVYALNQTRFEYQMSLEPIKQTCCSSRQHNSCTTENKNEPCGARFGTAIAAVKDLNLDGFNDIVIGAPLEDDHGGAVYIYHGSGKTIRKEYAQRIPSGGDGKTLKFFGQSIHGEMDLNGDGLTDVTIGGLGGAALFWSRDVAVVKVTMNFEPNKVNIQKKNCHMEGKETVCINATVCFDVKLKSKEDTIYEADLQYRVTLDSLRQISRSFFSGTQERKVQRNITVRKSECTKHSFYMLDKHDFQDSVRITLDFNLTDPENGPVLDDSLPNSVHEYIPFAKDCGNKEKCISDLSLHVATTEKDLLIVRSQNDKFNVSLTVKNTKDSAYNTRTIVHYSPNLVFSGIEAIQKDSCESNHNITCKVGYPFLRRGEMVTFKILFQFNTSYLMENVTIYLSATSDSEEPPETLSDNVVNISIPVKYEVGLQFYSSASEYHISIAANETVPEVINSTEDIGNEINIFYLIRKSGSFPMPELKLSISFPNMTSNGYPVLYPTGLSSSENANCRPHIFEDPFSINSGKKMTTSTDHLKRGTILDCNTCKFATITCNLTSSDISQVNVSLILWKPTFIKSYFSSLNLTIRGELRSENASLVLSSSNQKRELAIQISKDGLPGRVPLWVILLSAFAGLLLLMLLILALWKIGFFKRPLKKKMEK
Sequence of human α1β1 integrin (human), P56199 (P05556 21-798, chain 2 of 2, further chain): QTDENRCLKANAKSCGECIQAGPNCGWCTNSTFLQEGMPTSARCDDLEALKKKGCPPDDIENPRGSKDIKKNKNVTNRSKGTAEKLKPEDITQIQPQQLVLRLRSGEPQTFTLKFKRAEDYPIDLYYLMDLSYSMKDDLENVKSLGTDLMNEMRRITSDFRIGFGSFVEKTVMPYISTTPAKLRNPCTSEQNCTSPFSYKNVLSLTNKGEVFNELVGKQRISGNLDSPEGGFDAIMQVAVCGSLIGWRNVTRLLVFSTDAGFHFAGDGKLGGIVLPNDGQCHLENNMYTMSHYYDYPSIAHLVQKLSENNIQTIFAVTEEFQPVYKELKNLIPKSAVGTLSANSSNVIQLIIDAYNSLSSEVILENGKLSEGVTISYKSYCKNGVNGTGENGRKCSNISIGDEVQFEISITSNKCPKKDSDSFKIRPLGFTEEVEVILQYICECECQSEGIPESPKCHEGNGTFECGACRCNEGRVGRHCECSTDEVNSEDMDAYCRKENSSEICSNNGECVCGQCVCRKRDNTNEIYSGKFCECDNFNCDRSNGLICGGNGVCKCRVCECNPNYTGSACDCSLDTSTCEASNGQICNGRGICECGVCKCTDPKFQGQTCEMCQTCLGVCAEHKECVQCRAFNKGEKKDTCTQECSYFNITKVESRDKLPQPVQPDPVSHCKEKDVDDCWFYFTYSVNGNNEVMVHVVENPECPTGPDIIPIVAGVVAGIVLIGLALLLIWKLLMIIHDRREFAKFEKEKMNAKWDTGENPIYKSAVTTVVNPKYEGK

B1: synthetic peptide TSLTS (SEQ ID NO: 6) (peptide)
peptide: TSLTS
modifications: not checked
Q: For B1, which IC50 is on record?
A: 3.5 mM
